Experimental data published in patent US20090258363.
Read-outs that look alike come from different tables or passages of the source.

Tests used:
[1] = tested on: ZFP-FokI 10-residue ZC linker (synthetic); test: cleavage_in_vitro
[2] = tested on: ZFP-FokI 4-residue ZC linker (synthetic); test: cleavage_in_vitro
[3] = tested on: ZFP-FokI 2-residue ZC linker (synthetic); test: cleavage_in_vitro
[4] = tested on: CCR-5 ZFN (GATGAGGATGAC) (synthetic); test: cell_activity; conditions: K562, with p32
[5] = tested on: CCR-5 ZFN (AAACTGCAAAAG) (synthetic); test: cell_activity; conditions: K562, with p31
[6] = tested on: 296S ZFP-FokI E490K E490K (FokI numbering) (synthetic); test: cell_activity; conditions: with 287 Q486E; 0.01 alone
[7] = tested on: 296S ZFP-FokI (cells) (synthetic); test: cell_activity; conditions: with 287; 0.6 alone, 0.01 donor only
[8] = tested on: 287A ZFP-FokI (cells) (synthetic); test: cell_activity; conditions: with 296; 0.16 alone, 0.01 donor only
[9] = tested on: 287A ZFP-FokI Q486E Q486E (FokI numbering) (synthetic); test: cell_activity; conditions: with 296 E490K; 0.0 alone

CTAGGCATTATCCGAGTTCACCACAACTCGGATAATGACTAG (double strand) [6 bp separation]
activity [1]: 76 % cleaved | activity [2]: 95 % cleaved | activity [3]: 78 % cleaved

CTAGCATTATCCGAGTTCACCACCAACCACACAACTCGGATAATGCTAG (double strand) [15 bp separation]
activity [1]: 88 % cleaved | activity [2]: 97 % cleaved

CTAGCATTATCCGAGTTCAACCACCAACCACACCAACACAACTCGGATAATGCTAG (double strand) [22 bp separation]
activity [2]: 5 % cleaved

CTAGCATTATCCGAGTTCACCACACAACTCGGATAATGCTAG (double strand) [8 bp separation]
activity [1]: 63 % cleaved | activity [2]: 8 % cleaved

CTAGCATTATCCGAGTTCACCACCAACCACACCAACTCGGATAATGCTAG (double strand) [16 bp separation]
activity [2]: 100 % cleaved | activity [3]: 59 % cleaved

CTAGCATTATCCGAGTTCACACACACAACTCGGATAATGCTAG (double strand) [9 bp separation]
activity [2]: 23 % cleaved

CTAGCATTATCCGAGTTCACCACCAACACAACTCGGATAATGCTAG (double strand) [12 bp separation]
activity [2]: 22 % cleaved

CTAGCATTATCCGAGTTCACACAACTCGGATAATGCTAG (double strand) [5 bp separation]
activity [2]: 92 % cleaved

CTAGCATTATCCGAGTTCACACACAACTCGGATAATGCTAG (double strand) [7 bp separation]
activity [2]: 80 % cleaved

GATGAGGATGAC (double strand) [CCR-5 site 1]
activity (% targeted insertion) [4]: 1

CTAGCATTATCCGAGTTACACAACTCGGATAATGCTAG (double strand) [4 bp separation]
activity [1]: 4 % cleaved | activity ([2]; Mg, Zn, 37 C): 74 % cleaved | activity [3]: 74 % cleaved

AAACTGCAAAAG (double strand) [CCR-5 site 2]
activity (% targeted insertion) [5]: 1

GAAGCAGCA (double strand) [296S site]
activity (% corrected cells) [6]: 0.62 | activity (% corrected cells) [7]: 1.2

CTAGCATTATCCGAGTTCAACCACCAACCACACCAACACCACCAACTCGGATAATGCTAG (double strand) [26 bp separation]
activity [2]: 35 % cleaved

CTAGCATTATCCGAGTTCAACCACCAACCACACCAACTCGGATAATGCTAG (double strand) [17 bp separation]
activity [2]: 77 % cleaved

GGGGTAGCGG (double strand) [287A site]
activity (% corrected cells) [8]: 1.2 | activity (% corrected cells) [9]: 0.62
